Paper PMC5111828

Legend:
[1] = molecular target: Hsp70 Alexa Fluor 488 (UniProt P0DMV8); assay: cross-linking
[2] = molecular target: Bag3 (Homo sapiens) (UniProt O95817); assay: ITC; conditions: cited from earlier work
[3] = molecular target: Bag3 (Homo sapiens) (UniProt O95817); assay: APCE; conditions: cited from earlier work
[4] = molecular target: Bcl-2 associated athanogene 3 (Bag3) (UniProt O95817); assay: cross-linking
[5] = molecular target: Hsp90 (Homo sapiens) (UniProt P07900); assay: size exclusion chromatography; conditions: cited from earlier work
[6] = molecular target: Bcl-2 associated athanogene 3 (Bag3) (UniProt O95817); assay: flow cytometry protein interaction assay

Sequence of Hsp70 (P0DMV8 2-641): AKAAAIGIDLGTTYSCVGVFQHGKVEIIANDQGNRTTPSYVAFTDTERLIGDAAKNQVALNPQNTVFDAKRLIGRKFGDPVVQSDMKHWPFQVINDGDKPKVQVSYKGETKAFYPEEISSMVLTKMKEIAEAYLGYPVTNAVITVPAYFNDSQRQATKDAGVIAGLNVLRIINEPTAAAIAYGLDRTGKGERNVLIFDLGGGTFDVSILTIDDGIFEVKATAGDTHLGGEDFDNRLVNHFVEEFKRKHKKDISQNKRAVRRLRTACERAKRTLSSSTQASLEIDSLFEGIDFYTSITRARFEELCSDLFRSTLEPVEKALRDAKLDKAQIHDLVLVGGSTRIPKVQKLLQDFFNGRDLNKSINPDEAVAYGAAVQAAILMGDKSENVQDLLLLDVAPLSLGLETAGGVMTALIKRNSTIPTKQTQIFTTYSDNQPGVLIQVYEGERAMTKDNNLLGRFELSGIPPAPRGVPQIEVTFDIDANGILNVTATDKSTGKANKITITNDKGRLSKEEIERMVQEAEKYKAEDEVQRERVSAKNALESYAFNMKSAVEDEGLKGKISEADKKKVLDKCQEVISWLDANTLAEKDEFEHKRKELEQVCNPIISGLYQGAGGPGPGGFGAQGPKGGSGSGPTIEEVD

Substance: Bcl-2 associated athanogene 3 (Bag3) (from UniProt O95817 1-575) (natural protein)
- Kd [1]: 25 nM

Substance: Hsp70 (from UniProt P0DMV8)
- Kd [2]: 15 nM
- Kd [3]: 23 nM

Substance: Hsp70 E,D 283, 292 A,A (from UniProt P0DMV8 1-641) (natural protein)
- Ki [4]: 160 nM

Substance: Hsp70 R,R 258,262 A,A (from UniProt P0DMV8 1-641) (natural protein)
- Ki [4]: 400 nM

Substance: Hsp90 (from UniProt P07900)
- Kd [5]: 60 nM

Substance: unlabeled Hsp70 (Wild-Type) (from UniProt P0DMV8 1-641) (natural protein)
- Ki [6]: 15 nM
